Data as given in US20240377400A1, “METHODS FOR TREATING A SUBTYPE OF COLORECTAL CANCER” (Cornell University, priority 2021, published 2024).

How the values were obtained:
[1] = system: tumors from Prkci^fl/fl Prkcz^fl/fl Villin-cre (DKO) mice; test: scRNAseq and IHC of DKO mouse intestinal tumors treated with PVHA or Galunisertib; type: in vivo
Protocol: FIG. 3A illustrates the experimental design: Prkci^fl/flPrkcz^fl/fl (DKO) mice were treated either with PVHA (0.0375 mg/Kg twice per week) or Galunisertib (10 mg twice daily) as described. Intestinal tumors were analyzed by scRNAseq.
To identify the mechanism of action of PVHA in the treatment of CMS4 tumors, scRNAseq was performed using 10× Genomics Chromium platform on tumors from Prkci^fl/fl Prkcz^fl/fl Villin-cre (DKO) mice (n=5) treated with PVHA for 14 weeks (n=3), as compared to those treated with Galunisertib (GAL) for 17 weeks (n=3), as shown in experimental design (FIG. 3A). Unsupervised clustering identified tumor and normal epithelial cells as well as stromal and immune cells with selective markers for each population (FIGS. 3B-3C). […] Among tumor clusters (0,4,6), a cell population with transcriptomic similarities to the recently identified “revival stem cells” (RSC; high Clu) in the vehicle treated tumors was identified (FIGS. 3F-3G).

[2] = system: MTO-sgPrkci/sgPrkcz tumors; test: Subcutaneous MTO-sgPrkci/sgPrkcz tumors in syngeneic C57BL/6J mice treated with PEGPH20; type: in vivo, mouse
Protocol: FIGS. 8F-8J illustrate subcutaneous injection of sgPrkci/Prkcz and sgC MTOs in WT mice. Mice were treated twice a week with Veh or PEGPH20 0.0375 mg/kg for 3 weeks (MTOs: sgC n=10, sgC PEGPH20-treated n=10, sgPrkci/Prkcz n=10, and sgPrkci/Prkcz PEGPH20-treated n=8). Experimental design (F); Immunohistochemistry (IHC) for HA, Masson's trichrome, and αSMA (G) staining quantification (H); tumor volume (I) and tumor weight (J). Scale bars, 100 μm.
For colonoscopy-guided orthotopic injection in the colon submucosa using mouse tumor organoids (MTOs), a 10 μl organoid suspension of equivalent to 40-50 MTOs admixed with 10% Matrigel (Corning) was directly injected into the colonic submucosa of 7 weeks old C57BL/6 mice. 4 weeks after implantation, tumors were collected and analyzed histologically. Orthotopic tumor sizes were measured by caliper after mice were sacrificed. For xenografts using MTOs, a 100 μl cell suspension of equivalent to 0.5×10^6 cells of sgPrkci/Prkcz or sgC MTOs admixed with 30% Matrigel (Corning) was directly injected subcutaneously into the right flank of 7 weeks old C57BL/6 mice. Tumors were allowed to grow for 14 days, and mice were randomly divided to receive vehicle, n=20, or PEGPH20 (0.0375 mg/kg, 2 days each week) via retro-orbital injection, n=18. Tumors were measured twice a week. Mice were euthanized three weeks after treatment and tumors were analyzed histologically. For the combination therapy of anti-PD-L1 (Clone B7-H1, Bioxcell) antibody and PEGPH20, mice were injected with a dose of 5 mg/kg (body mass) of anti-PD-L1 antibody in combination with PEGPH20 (n=15) twice a week for 4 weeks until they were sacrificed.
To address the potential role of HA stromal accumulation in the tumorigenesis of intestinal mesenchymal tumors in vivo, mouse tumor organoids (MTO) with mutations in Apc, Trp53, Kras, and Tgfbr2 (Tauriello et al., 2018) and with deletion of Prkci and Prkcz by CRISPR/Cas9 were characterized. MTO-sgPrkci/sgPrkcz recapitulated the observed phenotype in human organoids showing in vitro upregulation of Has1, Has2, and Has3 transcripts, increased expression of HA, and enrichment in EMT and TGFβ signaling signatures (FIGS. 8A-8E). […] Next, the impact of depleting HA on tumorigenesis was tested. To that end, MTO-sgPrkci/sgPrkcz or MTO-sgC were subcutaneously transplanted into syngeneic C57BL/6J mice and treated with a low dose of clinical-grade pegylated hyaluronidase (PEGPH20; 0.0375 mg/Kg), equivalent to a human dose evaluated in clinical trials, or with vehicle (FIG. 8F).

[3] = system: MTO-sgPrkci/sgPrkcz liver metastases; test: Liver metastasis model, intrasplenic injection of sgPrkci/Prkcz MTOs; type: in vivo, mouse; conditions: 5 doses over 2.5 weeks
From the text: CRC predominantly metastasizes to the liver, which is the leading cause of death. Five-year overall survival for metastatic CRC patients is only 14.7%. Furthermore, patients with metastatic liver disease do worse than those without liver disease across different types of cancer and are totally refractory to ICB. Based on data that PEGPH20 remodels the tumor microenvironment and enables ICB in primary MSS CRC, the potential role of targeting HA in liver metastasis was investigated. To directly test therapeutic effects on liver metastatic disease, MTO-sgPrkci/sgPrkcz was inoculated in the portal circulation of wild-type C57BL/6J mice and mice were for two weeks and a half (5 doses) with a low clinically relevant dose of PEGPH20 ([…]) or in combination with anti-PDL1 or/and anti-CTLA4 (FIG. 22A).
Intrasplenic injection of sgPrkci/Prkcz MTOs in WT mice. Mice were treated twice a week with Veh or PEGPH20 0.0375 mg/kg and/or αPD-L1 (5 mg/kg) and/or aCTLA4 (100 ug/dose) for 2.5 weeks (n: sgPrkci/Prkcz MTOs Veh-treated=7, sgPrkciiPrkcz MTOs PEGPH20-treated=7, sgPrkci/Prkcz MTOs PEGPH20 and αPD-L1-treated=7, and sgPrkci/Prkcz MTOs PEGPH20 and aCTLA4-treated=6).

pancreatic cancer = pancreatic cancer patients; cited from earlier work

B1: PEGPH20: a PEGylated version of human recombinant PH20 hyaluronidase; clinical-grade pegylated hyaluronidase (Halozyme Therapeutics) (protein, UniProt P38567 36-490, looked up)
Hyaluronidase PH-20: LNFRAPPVIPNVPFLWAWNAPSEFCLGKFDEPLDMSLFSFIGSPRINATGQGVTIFYVDRLGYYPYIDSITGVTVNGGIPQKISLQDHLDKAKKDITFYMPVDNLGMAVIDWEEWRPTWARNWKPKDVYKNRSIELVQQQNVQLSLTEATEKAKQEFEKAGKDFLVETIKLGKLLRPNHLWGYYLFPDCYNHHYKKPGYNGSCFNVEIKRNDDLSWLWNESTALYPSIYLNTQQSPVAATLYVRNRVREAIRVSKIPDAKSPLPVFAYTRIVFTDQVLKFLSQDELVYTFGETVALGASGIVIWGTLSIMRSMKSCLLLDNYMETILNPYIINVTLAAKMCSQVLCQEQGVCIRKNWNSSDYLHLNPDNFAIQLEKGGKFTVRGKPTLEDLEQFSEKFYCSCYSTLSCKEKADVKDTDAVDVCIADGVCIDAFLKPPMETEEPQIFYNASPSTLS
modifications: PEGylated
- numbers of inferred interactions of tumor epithelial cells with immune cells ([1]; CellphoneDB, as compared to GAL treatment): higher
- Cd81+Pdgfra− fibroblast around the Crypt, IHC ([1]; DKO intestine): induction
- Trophocyte-like fibroblast cluster (Cd34, Cd81) ([1]; scRNAseq): strongly increased
- Cd8 T cells, cell type proportion ([1]; scRNAseq T cells): increase
- proportion of Treg ([1]; scRNAseq T cells): reduce
- fibroblast clusters associated with human CRC (Grem1/Sfrp1, Igf1/Cxcl14), CMS4 subtype (Sfrp2) and tumor initiation (Ptgs2/Spp1) ([1]; scRNAseq cell-type proportion): complete elimination
- tumor cells, cell percentage analysis ([1]; scRNAseq epithelial cells, compared to vehicle or GAL-treated): clear reduction
- tumoral goblet population ([1]; scRNAseq goblet cells): reduction
- T cells, cell-type proportion ([1]; scRNAseq immune cells): increase
- myeloid cells, cell-type proportion ([1]; scRNAseq immune cells): decrease
- TAN1 (anti-tumoral neutrophils) ([1]; scRNAseq myeloid cells): increased
- TAN2 (pro-tumoral neutrophils) ([1]; scRNAseq myeloid cells): reduced
- proportion of dendritic cells ([1]; scRNAseq myeloid cells): increased
- percentage of stromal and immune cells ([1]; scRNAseq, PVHA 0.0375 mg/Kg twice per week, 14 weeks, Galunisertib 10 mg twice daily, 17 weeks): decreased
- mature goblets proportion ([1]; scRNAseq, as compared to GAL): increased
- Lgr5 Stem Cells population ([1]; scRNAseq, population lost in the DKO intestine): recovered
- number of stromal cells ([1]; scRNAseq, without apparent changes in cell-type proportions): reduced
- Clu IHC ([1]; tumor area): decrease
- immature goblets, IHC double staining for Alcian blue and Lyz1 ([1]; tumor area): reduction
- signatures related to invasion, tumor progression, and desmoplasia (EMT, myogenesis, angiogenesis, TGFβ signaling, stromal activation, CMS4 subtype) ([2]; GSEA of Quant-seq, treated versus Veh): decrease
- IFN and allograft rejection signatures ([2]; GSEA of RNAseq, allografts from MTO-sgPrkci/sgPrkcz): enrichment
- tumor volume and weight ([2]; PEGPH20 0.0375 mg/Kg twice a week, 3 weeks): sensitive
- desmoplastic phenotype: expression of HA, collagen, and αSMA+ ([2]; PEGPH20 0.0375 mg/Kg twice a week, 3 weeks, IHC): reverted
- number of established liver tumors and volume of those tumors [3]: reducing
- metastatic burden of MTO-sgPrkci/sgPrkcz ([3]; PEGPH20 0.0375 mg/kg, αPD-L1 5 mg/kg, aCTLA4 100 ug/dose): markedly decreased
- duration of response or progression-free or overall survival (pancreatic cancer): no improvement
- response rate in the experimental arm (pancreatic cancer): higher
